Measurements from US6682898B2, “High-throughput screening assays for modulators of STAT4 activity” (Tularik Inc., priority 1998, dated 2004).
Non-standard residues stand in square brackets, D forms with d. No end group written: not given here. pY = N[C@@H](Cc1ccc(OP(=O)(O)O)cc1)C(=O)O

What was measured:
STAT6 = target: T1, STAT6 (UniProt P42226 1-847, limits assumed); experiment: binding affinity of the phosphorylated receptor peptide for STAT6; method not stated at the table (paragraph 32 speaks of IC50)
T1 construct: also called STAT6 polypeptide
T1 sequence (looked up): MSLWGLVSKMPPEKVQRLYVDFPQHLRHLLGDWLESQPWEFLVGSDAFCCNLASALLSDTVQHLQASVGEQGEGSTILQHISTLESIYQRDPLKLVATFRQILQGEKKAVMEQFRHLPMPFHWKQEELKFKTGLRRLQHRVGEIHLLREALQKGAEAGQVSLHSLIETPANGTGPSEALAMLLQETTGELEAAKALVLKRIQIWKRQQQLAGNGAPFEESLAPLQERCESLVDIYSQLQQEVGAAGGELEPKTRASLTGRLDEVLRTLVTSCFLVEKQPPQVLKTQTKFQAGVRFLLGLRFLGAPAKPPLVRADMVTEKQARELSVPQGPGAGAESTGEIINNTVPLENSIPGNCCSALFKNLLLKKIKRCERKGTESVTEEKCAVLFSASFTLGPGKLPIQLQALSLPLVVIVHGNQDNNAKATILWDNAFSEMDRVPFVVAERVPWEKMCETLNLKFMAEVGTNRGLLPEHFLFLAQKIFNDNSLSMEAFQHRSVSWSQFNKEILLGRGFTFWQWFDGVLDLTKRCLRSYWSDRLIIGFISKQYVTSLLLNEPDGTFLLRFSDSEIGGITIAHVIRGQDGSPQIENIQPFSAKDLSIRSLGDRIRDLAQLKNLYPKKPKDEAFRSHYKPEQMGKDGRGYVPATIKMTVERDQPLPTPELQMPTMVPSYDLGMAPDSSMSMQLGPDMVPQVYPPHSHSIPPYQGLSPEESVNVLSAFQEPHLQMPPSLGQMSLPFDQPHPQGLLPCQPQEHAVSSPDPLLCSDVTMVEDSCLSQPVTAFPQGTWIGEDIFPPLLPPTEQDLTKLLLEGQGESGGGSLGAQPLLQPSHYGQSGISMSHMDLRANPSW

STAT4 [1] = target: T2, STAT4 (Homo sapiens, UniProt Q14765); experiment: Chemiluminescence binding assay, signal to noise, STAT4; design: key: high signal relative to background = + + + +
T2 sequence (Q14765 1-748): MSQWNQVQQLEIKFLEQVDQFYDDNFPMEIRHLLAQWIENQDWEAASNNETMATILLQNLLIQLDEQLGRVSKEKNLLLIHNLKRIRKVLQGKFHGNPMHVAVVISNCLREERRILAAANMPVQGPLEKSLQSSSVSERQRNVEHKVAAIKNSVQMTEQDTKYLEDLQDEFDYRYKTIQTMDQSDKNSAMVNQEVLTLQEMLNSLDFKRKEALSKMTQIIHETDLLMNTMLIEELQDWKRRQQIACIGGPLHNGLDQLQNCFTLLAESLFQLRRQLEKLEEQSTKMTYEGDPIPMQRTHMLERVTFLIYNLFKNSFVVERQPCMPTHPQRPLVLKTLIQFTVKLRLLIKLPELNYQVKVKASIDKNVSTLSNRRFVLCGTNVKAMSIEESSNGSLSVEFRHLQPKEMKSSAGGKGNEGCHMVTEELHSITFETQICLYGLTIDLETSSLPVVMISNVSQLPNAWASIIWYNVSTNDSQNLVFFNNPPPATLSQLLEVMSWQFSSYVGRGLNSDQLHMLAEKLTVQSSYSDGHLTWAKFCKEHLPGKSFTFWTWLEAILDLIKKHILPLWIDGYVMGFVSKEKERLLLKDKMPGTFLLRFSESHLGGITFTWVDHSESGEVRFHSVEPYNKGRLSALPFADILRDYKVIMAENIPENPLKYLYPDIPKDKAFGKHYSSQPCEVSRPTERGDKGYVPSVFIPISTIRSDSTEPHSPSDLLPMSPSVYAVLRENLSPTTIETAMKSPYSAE
Method: (§1) The assays of the invention can be conducted as an ELISA assay, using a 96-well microplate format or a larger format if desired. In one embodiment, a phosphotyrosine-containing receptor peptide is incubated with a protein which contains an SH2 domain (e.g., a STAT polypeptide) to provide opportunity for the SH2 domain containing protein to bind the peptide. The peptide is preferably bound to a tag, e.g., biotin, at the amino terminus of the peptide. There can be a spacer between the tag and the peptide. The solution is placed in wells of a 96-well microplate that are coated with a tag binder, e.g., streptavidin. Reduction of background is achieved by incubating, in a separate reaction, a primary antibody specific for the SH2 domain containing protein and a secondary antibody specific for the first antibody which is to bind to the SH2 domain containing protein. The secondary antibody has conjugated to it a substrate for detection. The antibodies bind and form a binding pair of antibodies Ab1 and Ab2. Ab1 remains available to bind the SH2 domain containing protein for which it is specific. Ab2 remains conjugated to a substrate for chemiluminescence detection later.
(§2) The solution containing binding pairs of primary and secondary antibodies bound together is then added to the microwells that already contain the bound streptavidin, biotinylated receptor peptide and an SH2 domain containing protein bound to the receptor peptide. […]
(§3) An alternate method for conducting the assay involves preincubating the SH2 domain containing protein with the primary antibody that is specific for the SH2 domain containing protein. […] After allowing time for the SH2-antibody complex to bind the biotinylated peptide bound to streptavidin, a second antibody specific for the first antibody is added, and the presence of the second antibody is detected as before, using a chemiluminescence reaction with either alkaline phosphatase detection or horse radish peroxidase detection. […]

STAT1 = target: T3, STAT1 (Homo sapiens, UniProt P42224); experiment: Chemiluminescence binding assay, signal to noise, STAT1; design: key: high signal relative to background = + + + +
T3 sequence (P42224 1-750): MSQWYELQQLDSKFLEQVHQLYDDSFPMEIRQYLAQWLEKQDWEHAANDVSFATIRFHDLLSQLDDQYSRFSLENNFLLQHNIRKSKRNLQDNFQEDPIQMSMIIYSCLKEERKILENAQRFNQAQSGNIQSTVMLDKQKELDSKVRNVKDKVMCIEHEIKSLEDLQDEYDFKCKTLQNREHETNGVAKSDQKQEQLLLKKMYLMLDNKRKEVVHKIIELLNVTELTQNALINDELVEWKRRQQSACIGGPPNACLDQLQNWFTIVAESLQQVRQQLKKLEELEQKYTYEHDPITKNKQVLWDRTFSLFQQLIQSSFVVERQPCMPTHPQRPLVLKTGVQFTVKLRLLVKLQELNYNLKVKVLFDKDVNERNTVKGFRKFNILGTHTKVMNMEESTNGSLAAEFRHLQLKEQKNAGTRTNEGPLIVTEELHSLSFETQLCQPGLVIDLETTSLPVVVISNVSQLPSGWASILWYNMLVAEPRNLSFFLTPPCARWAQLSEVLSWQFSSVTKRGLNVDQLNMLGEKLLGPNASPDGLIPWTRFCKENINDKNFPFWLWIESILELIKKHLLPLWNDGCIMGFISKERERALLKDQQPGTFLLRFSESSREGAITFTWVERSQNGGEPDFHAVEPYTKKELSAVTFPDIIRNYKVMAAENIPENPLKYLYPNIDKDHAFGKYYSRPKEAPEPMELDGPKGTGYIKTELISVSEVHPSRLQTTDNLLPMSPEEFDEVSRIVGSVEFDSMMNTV
Method: as §1, §2, §3

STAT4 [2] = target: T4, STAT4 (UniProt Q14765 1-748, limits assumed); experiment: concentration at 50% binding of the STAT protein to the phosphotyrosine peptide (Example 4)
T4 construct: also called STAT4 polypeptide
T4 sequence (looked up): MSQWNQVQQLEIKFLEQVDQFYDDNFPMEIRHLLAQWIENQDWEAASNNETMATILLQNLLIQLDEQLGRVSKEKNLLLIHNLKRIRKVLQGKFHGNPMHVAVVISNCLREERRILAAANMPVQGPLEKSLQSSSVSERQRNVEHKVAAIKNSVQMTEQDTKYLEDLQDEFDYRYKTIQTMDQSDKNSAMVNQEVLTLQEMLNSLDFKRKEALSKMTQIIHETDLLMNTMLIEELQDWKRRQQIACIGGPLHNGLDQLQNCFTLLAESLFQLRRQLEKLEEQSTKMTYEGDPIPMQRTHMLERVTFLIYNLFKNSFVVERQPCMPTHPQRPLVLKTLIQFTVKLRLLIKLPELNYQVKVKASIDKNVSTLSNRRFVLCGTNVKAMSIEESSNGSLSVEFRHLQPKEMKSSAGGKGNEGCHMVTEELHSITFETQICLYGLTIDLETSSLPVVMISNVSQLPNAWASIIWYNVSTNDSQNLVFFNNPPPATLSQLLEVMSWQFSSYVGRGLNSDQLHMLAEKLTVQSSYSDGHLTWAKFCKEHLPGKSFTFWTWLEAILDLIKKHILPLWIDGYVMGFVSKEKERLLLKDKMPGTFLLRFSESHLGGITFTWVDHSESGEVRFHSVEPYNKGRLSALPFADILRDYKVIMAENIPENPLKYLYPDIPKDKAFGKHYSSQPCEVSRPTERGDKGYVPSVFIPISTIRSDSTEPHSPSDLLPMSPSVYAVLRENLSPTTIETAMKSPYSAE

STAT4 [3] = target: T4, STAT4; experiment: binding affinity of the phosphorylated receptor peptide for STAT4; method not stated at the table (paragraph 32 speaks of IC50)

Ac-Y^PVPWQ-NH2 (peptide)
BINDING AFFINITY (STAT6): 1.5 µM

GY^PDMPHVL: phosphotyrosine receptor peptide for STAT4 (also binds STAT1) (G[pY]DMPHVL)
signal relative to background, STAT4 (STAT4 [1]; Ab1/Ab2 preincubation): + + + +
signal relative to background, STAT4 (STAT4 [1]; STAT4/Ab preincubation): + + + +
signal relative to background, STAT4 (STAT4 [1]; Standard assay): + +
signal relative to background, STAT1 (STAT1; Ab1/Ab2 preincubation): + + + +
signal relative to background, STAT1 (STAT1; STAT1/Ab preincubation): + + + +
signal relative to background, STAT1 (STAT1; Standard assay): + +

ASSGEEG[pY]KPFQDLI [ASSGEEGY^PKPFQDLI]
IC50 (STAT4 [2]): 30 µM

B1: SHEGY^PLPSNID (IL-12 receptor) (peptide)
peptide: SHEG[pY]LPSNID
notes: Native IL-12 receptor-derived phosphopeptide; also called IL-12 receptor peptide
BINDING AFFINITY (STAT4 [3]): 2.9 µM

SHEG[pY]LPHNID [SHEGY^PLPHNID]
BINDING AFFINITY (STAT4 [3]): 0.7 µM

SHEG[pY]LPNNID [SHEGY^PLPNNID]
BINDING AFFINITY (STAT4 [3]): 0.51 µM

SHEG[pY]LPQNID [SHEGY^PLPQNID]
BINDING AFFINITY (STAT4 [3]): 0.39 µM

SHEG[pY]LPWNID [SHEGY^PLPWNID]
BINDING AFFINITY (STAT4 [3]): 0.93 µM
